Test results as given in patent publication US20110287023A1.

Molecular target: HMG1 purified from calf (bovine) thymus (bovine) (UniProt P10103)
Experiment: cell-based or functional assay

HMG1 purified from calf (bovine) thymus (bovine), sequence (P10103 2-215 limits assumed): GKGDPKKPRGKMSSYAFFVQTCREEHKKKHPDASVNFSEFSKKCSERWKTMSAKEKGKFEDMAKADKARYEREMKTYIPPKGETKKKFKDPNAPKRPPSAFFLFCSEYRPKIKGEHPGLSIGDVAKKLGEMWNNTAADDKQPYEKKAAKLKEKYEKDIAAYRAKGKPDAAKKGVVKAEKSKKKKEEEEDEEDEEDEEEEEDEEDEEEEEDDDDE

IFN-α release (HMGB/CpG-A mediated enhanced TLR9 signaling): > 95%
Substance: RAGE-Fc fusion protein (species not stated)
